The source of these data is publication PMC8244255 (Current Research in Structural Biology, 2021).

Experiment [1] deals with C-lobe fragment (CaM 76–146) (Homo sapiens, UniProt P0DP23). The experiment can be described thus: ITC of CK peptides with C-lobe fragment of CaM. The experiment is classed as binding. The settings on record: C-lobe compared to N-lobe.
Another experiment has as its target Full-length human CaM (Homo sapiens, UniProt P0DP23). Description: ITC of CK peptides with full-length CaM. Type of experiment: binding.
The target of experiment [2] is Calmodulin C-terminal globular domain (C-lobe fragment, sequence 76-146) (human, UniProt P0DP23 76-146). Description: ITC. A general note: Isothermal titration calorimetry measures the heat released or taken up as one component is titrated into another.
Experiment [3] concerns the target Calmodulin N-terminal globular domain (N-lobe fragment, sequence 1-75) (human, UniProt P0DP23 1-75). Description: ITC.

With Ac-NLGKHEKFSEVLKRLRLQ-NH2 [CKB peptide], the “affinity for C-lobe relative to N-lobe (times higher)” value in experiment [1] is “ca. 10 times”. In addition, on Full-length human CaM (presence of Ca2+), the stoichiometry n worked out at 2.

As for “AcNH-LKRLRLQKRGTGGVDTAA-CONH2 [peptide covering CKB residues 312–329]”, the “binding to CaM” value on Full-length human CaM (at any solution conditions) was “No binding could be detected”. One may read the stoichiometry N as the number of molecules, sites or subunits per partner or assembly. For the molecule Ac-NLGKHEKFSEVLKRLRLQ-NH2 [CKB peptide (human brain-type creatine kinase residues 301-318)], the “stoichiometry N” value in experiment [2] and in experiment [3] was 1 peptide per fragment throughout. As for Ac-HLSKHPKFEEILTRLRLQ-NH2 [CKM peptide (human muscle-type creatine kinase residues 301-318)], the “stoichiometry N” value in experiment [2] and in experiment [3] was 1 peptide per fragment in each case.
